Binding result, Kd and IC50 data for 20 molecules are collected here from patent US20060193821, “Aptamers to the human IL-12 cytokine family and their use as autoimmune disease therapeutics” (published 2006).

A word on the Kd: it is a measure of binding affinity in units of concentration. One may read the IC50 as the midpoint of a concentration-inhibition curve. Read a high IC50 as lower potency.

For series [1], the target named is T1, IL-23 (human, p19/p40 heterodimer) (Homo sapiens, UniProt Q9NPF7;P29460 SEQ:20-189,SEQ:23-328). Put plainly: filter; no binding detectable. Particulars: tags: R&D Systems, carrier free; label: 5'-32P. The source says: Following the dRmY selection process for aptamers binding to IL-23 (described in Example 1C above) and determination of the oligonucleotide sequences, the sequences were systematically minimized to obtain shorter oligonucleotide sequences that retain the binding characteristics. On the basis of the IL-23 binding analysis described in Example 1A above and the cell based assay data described in Example 3 below, ARC489 (SEQ ID NO 91) (74mer) was chosen for further characterization. 3 minimized constructs based on clone ARC489 (SEQ ID NO 91) were designed and generated. […] Table 23 includes the binding data for the dRmY minimized aptamers.

Series [2] deals with T1, IL-23 (human, p19/p40 heterodimer). Kind of series: filter; 1X PBS, tRNA, ssDNA, BSA, 30 min RT. Particulars: tags: R&D Systems, carrier free; label: 32P.
For series [3], the target named is IL-12 (human, p35/p40 heterodimer) (Homo sapiens, UniProt P29459;P29460 SEQ:57-253,SEQ:23-328). Put plainly: filter; 1X PBS, tRNA, ssDNA, BSA, 30 min RT. Particulars: label: 32P.
The target of series [4] is T1, IL-23 (human, p19/p40 heterodimer). Put plainly: filter; DPBS with Ca and Mg, 0.1 mg/mL tRNA, 30 min RT. Conditions: tags: R&D Systems, carrier free; label: 32P. Here is the method: The selection progress was monitored using the dot blot sandwich filter binding assay as described in Example 1A. The 5′-³²P-labeled pool RNA was refolded at 90° C. for 3 minutes and cooled to room temperature for 10 minutes. Next, pool RNA (trace concentration) was incubated with h-IL-23 DPBS plus 0.1 mg/mL tRNA for 30 minutes at room temperature and then applied to a nitrocellulose and nylon filter sandwich in a dot blot apparatus (Schleicher and Schuell). The percentage of pool RNA bound to the nitrocellulose was calculated and monitored approximately every 3 rounds with a single point screen (+/−250 nM h-IL-23). Pool KD measurements were measured using a titration of h-IL-23 protein (R&D, Minneapolis, Minn.) and the dot blot apparatus as described above.
The rRmY h-IL-23 selection was enriched for h-IL-23 binding vs. the naïve pool after 4 rounds of selection (data not shown). The selection stringency was increased and the selection was continued for 8 more rounds. […] The rGmH selection was enriched over the naïve pool binding at Round 10. […] FIG. 7 is a binding curve of rRmY and rGmH pool selection binding to h-IL-23. The pools were cloned using TOPO TA cloning kit (Invitrogen, Carlsbad, Calif.) and individual sequences were generated and tested for binding. A single point binding screen was initially performed on all crude rRmY clone transcriptions using a 1:200 dilution, +/−200 nM IL-23, plus 0.1 mg/mL competitor tRNA. […] The 10 point screen was performed using zero to 480 nM IL-23 in 3 fold serial dilutions. Binding curves were generated (KaleidaGraph v. 3.51, Synergy Software) and KDs were estimated by fitting the data to the equation: fraction RNA bound=amplitude[h-IL-23]/KD+[h-IL-23]). […] There was one group of 6 duplicate sequences and 4 pairs of 2 duplicate sequences out of the rRmY clones generated. […] Clones were also tested from 48 crude rGmH clone transcriptions at a 1:200 dilution and 0.1 mg/mL tRNA was used as competitor.

For series [5] the target is unchanged. Put plainly: filter; 0.1 mg/mL tRNA, 30 min RT. Conditions: tags: R&D Systems, carrier free; label: 5'-32P. Here is the method: (§1) Monitoring Progress of rRfY Selection. Dot blot binding assays were performed throughout the selections to monitor the protein binding affinity of the pools. Trace ³²P-labeled RNA was combined with a dilution series of h-IL-23 and incubated at room temperature for 30 minutes in 1×SHMCK (20 mM Hepes, 120 mM NaCl, 5 mM KCl, 1 mM MgCl₂, 1 mM CaCl₂, pH 7.4) plus 0.1 mg/mL tRNA for a final volume of 20 μL. The binding reactions were analyzed by nitrocellulose filtration using a Minifold I dot-blot, 96-well vacuum filtration manifold (Schleicher & Schuell, Keene, N.H.). A three-layer filtration medium was used, consisting (from top to bottom) of Protran nitrocellulose (Schleicher & Schuell), Hybond-P nylon (Amersham Biosciences) and GB002 gel blot paper (Schleicher & Schuell). RNA that is bound to protein is captured on the nitrocellulose filter, whereas the non-protein bound RNA is captured on the nylon filter. The gel blot paper was included simply as a supporting medium for the other filters. Following filtration, the filter layers were separated, dried and exposed on a phosphor screen (Amersham Biosciences, Piscataway, N.J.) and quantified using a Storm 860 Phosphorimager® blot imaging system (Amersham Biosciences).

The target is the same in series [6]. Kind of series: cell_activity; TransAM STAT3. Particulars: tags: R&D Systems, carrier free.
Series [7] has the same target. Kind of series: filter; 0.1 mg/mL tRNA. Particulars: tags: R&D Systems, carrier free. Here is the method: as §1
The target is the same in series [8]. Kind of series: filter; -tRNA; competition 6 nM. Particulars: tags: R&D Systems, carrier free. Here is the method:
These molecules were gel purified and assayed for IL-23 binding using the dot blot assay as described above and compared to each other and to the parent molecule, ARC979. An 8 point IL-23 titration (0 nM to 300 nM, 3 fold serial dilutions) was used in the binding assay.

The target in series [9] is T2, IL-23 (mouse, p19/p40 heterodimer) (Mus musculus, UniProt Q9EQ14;P43432 SEQ:22-196,SEQ:23-335).
T2 sequence 1: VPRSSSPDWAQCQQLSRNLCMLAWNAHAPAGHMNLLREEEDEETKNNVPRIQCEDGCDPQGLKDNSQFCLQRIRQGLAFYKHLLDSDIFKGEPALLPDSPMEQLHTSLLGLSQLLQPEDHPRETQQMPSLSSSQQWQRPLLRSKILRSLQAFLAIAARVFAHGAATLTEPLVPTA
T2 sequence 2: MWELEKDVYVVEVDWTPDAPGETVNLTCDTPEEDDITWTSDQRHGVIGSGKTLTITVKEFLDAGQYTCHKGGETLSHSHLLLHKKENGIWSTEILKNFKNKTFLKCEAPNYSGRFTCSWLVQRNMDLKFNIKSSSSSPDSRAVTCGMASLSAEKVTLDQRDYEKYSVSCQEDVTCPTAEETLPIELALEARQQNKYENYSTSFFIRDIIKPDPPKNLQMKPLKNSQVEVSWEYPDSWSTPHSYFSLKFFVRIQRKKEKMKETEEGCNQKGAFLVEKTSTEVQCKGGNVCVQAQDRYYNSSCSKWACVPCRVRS
Kind of series: filter; 1X PBS, 0.1 mg/mL BSA, 30 min RT. Conditions: tags: isolated in-house; label: 32P. The source says:
Based on visual inspection of the parent clone sequences of the mouse IL-23 rRfY aptamers described in Example 1E, and predicted RNA structures using an RNA folding program (RNAstructure), minimized constructs were designed for each of the seven binding mIL-23 clones. PCR templates for the minimized construct oligos were ordered from Integrated DNA Technologies (Coraville, Iowa). Constructs were PCR amplified, transcribed, gel purified, and tested for binding to mIL-23 using the dot blot binding assay previously described. Trace ³²P-labeled RNA was combined with mIL-23 and incubated at room temperature for 30 min in 1×PBS plus 0.1 mg/mL BSA for a final volume of 30 μL. The reaction was added to a dot blot apparatus (Schleicher and Schuell Minifold-1 Dot Blot, Acrylic). Binding curves were generated as described in previous sections. Table 33 summarizes the protein binding characterization for each rRfY minimized construct that had significant binding to mIL-23.

T1 sequence (Q9NPF7 20-189, chain 1 of 2): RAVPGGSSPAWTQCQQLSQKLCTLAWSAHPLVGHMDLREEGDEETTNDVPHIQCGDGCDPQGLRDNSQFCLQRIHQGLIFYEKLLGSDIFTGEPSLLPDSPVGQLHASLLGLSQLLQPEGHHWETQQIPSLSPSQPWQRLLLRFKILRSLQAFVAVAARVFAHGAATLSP
T1 sequence (P29460 23-328, chain 2 of 2): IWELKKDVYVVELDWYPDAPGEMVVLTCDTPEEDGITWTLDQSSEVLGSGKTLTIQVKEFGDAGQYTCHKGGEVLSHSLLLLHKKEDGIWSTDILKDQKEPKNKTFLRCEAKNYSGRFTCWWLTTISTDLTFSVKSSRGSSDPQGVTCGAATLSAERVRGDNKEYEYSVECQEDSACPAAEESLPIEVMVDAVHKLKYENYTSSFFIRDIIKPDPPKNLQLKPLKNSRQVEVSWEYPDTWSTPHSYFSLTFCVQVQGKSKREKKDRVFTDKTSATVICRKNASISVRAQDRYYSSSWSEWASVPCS
Sequence of IL-12 (human, p35/p40 heterodimer) (P29459 23-219, chain 1 of 2): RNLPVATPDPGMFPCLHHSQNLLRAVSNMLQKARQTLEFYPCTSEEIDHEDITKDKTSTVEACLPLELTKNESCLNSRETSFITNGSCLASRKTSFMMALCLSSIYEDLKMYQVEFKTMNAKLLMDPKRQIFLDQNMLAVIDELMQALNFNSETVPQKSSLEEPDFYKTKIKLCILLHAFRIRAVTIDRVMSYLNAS
Sequence of IL-12 (human, p35/p40 heterodimer) (P29460 23-328, chain 2 of 2): as the sequence (P29460 23-328, chain 2 of 2) above

Take GCGCCGGUGGGCGGGCACCGGGUGGAUGCGCC (mixed, 2'-deoxy A and G, 2'-OMe C and U (dRmY)) [ARC528]: the binding result in series [1] is “no binding”.

B1: ARC490 (mixed)
RNA: GGGAGAGGAGAGAACGUUCUACAGCCUUUUGGGUAAGGGGAGGGGUGCCGGUCGCUGUCGAUCGAUCGAUCGAUG
modifications: 2'-deoxy A and G, 2'-OMe C and U (dRmY)
On to B1, for which the values for the dissociation constant (Kd) in series [2] and in series [3] were 26 nM and 37.1 nM, respectively.

B2: ARC489 (mixed)
RNA: GGGAGAGGAGAGAACGUUCUACAGCGCCGGUGGGCGGGCAUUGGGUGGAUGCGCUGUCGAUCGAUCGAUCGAUG
modifications: 2'-deoxy A and G, 2'-OMe C and U (dRmY)
With B2, the Kd in series [2] worked out at 4 nM; in series [3] it was 17.2 nM.

B3: ARC491 (mixed)
RNA: GGGAGAGGAGAGAACGUUCUACAGCGCCGGUGGGUGGGCAUAGGGUGGAUGCGCUGUCGAUCGAUCGAUCGAUG
modifications: 2'-deoxy A and G, 2'-OMe C and U (dRmY)
B3: the Kd in [2] is 17.1 nM; in [3] it was 93 nM.

B4: rRmY clone SEQ 80 (ssRNA)
RNA: GGGAGAGGAGAGAACGUUCUACAAGAUAUAAUUAAGGAUAAGUGCAAAGGAGACGCUGUCGAUCGAUCGAUCGAUG
modifications: 2'-OMe all C and U (rRmY)
Turning to B4, the Kd in [4] stood at 3790 nM.

B5: rRmY clone SEQ 83 (ssRNA)
RNA: GGGAGAGGAGAGAACGUUCUACGCAGGCUGUCGUAGACAAACGAUGAAGUCGCGCUGUCGAUCGAUCGAUCGAUG
modifications: 2'-OMe all C and U (rRmY)
Regarding B5, in series [4], the Kd was determined as 8.2 nM.

B6: A10.min5 (ssRNA)
RNA: GGAGCAUACACAAGAAGUUUUUUGUGCUCUGAGUACUCAGCGUCCGUAAGGGAUAUGCUCC
modifications: 2'-F all C and U (rRfY)
With B6, the dissociation constant (Kd) in series [5] came to 57.8 nM.
For the molecule GGAGUACGCCGAAAGGCGCUUCCGAAAGGACGUCCGUAAGGGAUACUCC (ssRNA, 2'-F all C and U (rRfY)) [Type 1.5], the affinity in [5], expressed as Kd, was 31.4 nM.

B7: B10.min4 (ssRNA)
RNA: GGAGCAUACACAAGAAGUGCUUCAUGCGGCAAACUGCAUGACGUCGAAUAGAUAUGCUCC
modifications: 2'-F all C and U (rRfY)
As for B7, in [5], the affinity, expressed as Kd, was 36.4 nM.
Regarding GGGUACGCCGAAAGGCGCUUCCGAAAGGACGUCCGUAAGGGAUACCC (ssRNA, 2'-F C,U) [Type 1.4], in [6], half-maximal inhibition (IC50) was put at 80 nM. This molecule also displayed a Kd in [7] of 185 nM.

B8: F11.min2 (ssRNA)
RNA: GGACAUACACAAGAUGUGCUUGAGUUAAAUCUCAUCGUCCCCGUUUGGGGAUAUGUC
modifications: 2'-F all C and U (rRfY)
As for B8, in series [5], the affinity, expressed as Kd, was 65 nM.
As for ACAGCGCCGGUGUUUUCAUUGGGUGGAUGCGCUGU (mixed, 2'-deoxy A and G, 2'-OMe C and U (dRmY)) [ARC529], the binding result in series [1] is “no binding”.

B9: rRmY clone SEQ 88 (ssRNA)
RNA: GGGAGAGGAGAGAACGUUCUACAUAAGCAGGCUCCGAUAGUAUUCGGGAAGUCGCUGUCGAUCGAUCGAUCGAUG
modifications: 2'-OMe all C and U (rRmY)
On to B9, for which the Kd in series [4] amounted to 101 nM.
GGAGUACACAAGAAGUGCUUCCGAAAGGACGUCGAAUAGAUACUCC (ssRNA, 2'-F C,U) [B10.min5] came in with an IC50 in series [6] of 80 nM. For the same molecule, in series [7], the affinity, expressed as Kd, was 277 nM.

B10: ARC1161 (mixed)
RNA: ACAGGCAAGUAAUUGGGGAGUGCGGGCGGGGUGU
modifications: deoxy A,G; 2'-OMe C,U; PS 19-20 [PS between 19-20; 2'-OMe C,U at 2,6,10,13,14,21,23,27,32,34; deoxy A,G at all other positions]
The molecule B10 gave a Kd in series [8] of 55 nM.

B11: A10.min6 (ssRNA)
RNA: GGAGUACGCCGAAAGGCGCUCUGAGUACUCAGCGUCCGUAAGGGAUACUCC
modifications: 2'-F C,U
Regarding B11, the IC50 in [6] was 250 nM. The same molecule showed a Kd in series [7] of 48.3 nM.
In turn, GGGCACUCAGCCACAGGUGGCUUAAUACUGUAAAGACGUGCCC (ssRNA, 2'-F all C and U (rRfY)) [ARC1739 (ARC1628 minimer)] displayed a Kd in [9] of 1 nM.

B12: rRmY clone SEQ 76 (ssRNA)
RNA: GGGAGAGGAGAGAACGUUCUACAACAAAGCAGGCUCAUAGUAAUAUGGAAGUCGCUGUCGAUCGAUCGAUCGAUG
modifications: 2'-OMe all C and U (rRmY)
B12: the Kd in [4] was found to be 77.2 nM.
As for GGGCACUCAGCCACCUUGGGCUUAAUACCUAUCGGAUGUGCCC (ssRNA, 2'-F all C and U (rRfY)) [ARC1634 minimer], binding in series [9] was put at a Kd of 19 nM.
On to GGGCACUCAGCCACAGCUCGGUGGCUUAAUAUCUAUGUGAACGUGCCC (ssRNA, 2'-F all C and U (rRfY)) [ARC1633 minimer], for which the Kd in [9] was determined as 25 nM.
